The values that follow come from publication PMC6900184, “The Escherichia coli MarA protein regulates the ycgZ‐ymgABC operon to inhibit biofilm formation”.

This series has as its target T1, MarA (Escherichia coli, UniProt P0ACH5 1-127).
T1 sequence: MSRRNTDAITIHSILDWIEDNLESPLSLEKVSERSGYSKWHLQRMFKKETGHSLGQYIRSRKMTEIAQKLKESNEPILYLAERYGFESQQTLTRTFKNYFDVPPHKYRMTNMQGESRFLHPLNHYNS
In words: EMSA; MarA 0.4, 1.2, 2.0 uM; EMSA: 20 mM Tris pH 7, 10 mM MgCl2, 100 mM EDTA (so in the source), 120 mM KCl; 5% polyacrylamide gel; temperature not stated. As to conditions: protein: recombinant; tags: N-terminal His6 tag (pET28a) removed by thrombin; label: 5'-32P; 5' overhang 4 nt at both ends (EcoRI, HindIII). (Mobility shift assays separate free from complexed probe on a gel.)

B1: ycgZ.1m (dsDNA)
DNA 1: AATTCATATGCATTACGTCTAATTCGAAAAAATTAATTTATCATTCTGTACACATATTTCGTACAAGTTTGCTATTGTTACTTCACTTAACATTGATTAACATTTTTAACAGAGGCGTAGCATGA
DNA 2: AGCTTCATGCTACGCCTCTGTTAAAAATGTTAATCAATGTTAAGTGAAGTAACAATAGCAAACTTGTACGAAATATGTGTACAGAATGATAAATTAATTTTTTCGAATTAGACGTAATGCATATG
Regarding B1, the binding result is “no binding”.
